According to article PMC8981990:

Biological target: PKM2 (pyruvate kinase M2 isoform) (human (endogenous in U87)) (UniProt P14618)
Experiment: cross-linking; cell lysates (100 ug) of U87, T98G or LN319 cells 10 h after release, glutaraldehyde 0.125%, 5 min, 37 C, Western blot for PKM2; vehicle or DASA-58 (40 uM, 3 h)

Chain of PKM2 (pyruvate kinase M2 isoform), P14618 1-531 (natural protein; other documents disagree on this pair) (P14618 whole entry, canonical isoform): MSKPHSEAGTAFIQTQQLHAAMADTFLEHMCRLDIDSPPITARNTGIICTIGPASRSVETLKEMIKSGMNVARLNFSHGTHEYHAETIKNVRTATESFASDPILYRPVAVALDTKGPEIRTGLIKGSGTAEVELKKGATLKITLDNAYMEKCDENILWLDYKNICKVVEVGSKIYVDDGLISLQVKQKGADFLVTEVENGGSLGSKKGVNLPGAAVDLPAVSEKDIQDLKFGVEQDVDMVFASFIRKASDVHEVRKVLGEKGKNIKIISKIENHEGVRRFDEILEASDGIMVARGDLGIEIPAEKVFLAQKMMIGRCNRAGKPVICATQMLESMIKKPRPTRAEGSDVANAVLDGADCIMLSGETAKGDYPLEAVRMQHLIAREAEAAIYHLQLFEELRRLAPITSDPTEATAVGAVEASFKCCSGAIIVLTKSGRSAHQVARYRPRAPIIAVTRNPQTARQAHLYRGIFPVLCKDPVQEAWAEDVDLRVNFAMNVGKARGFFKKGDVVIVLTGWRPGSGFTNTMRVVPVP

- stoichiometry N: 2
Substance: PKM2 (pyruvate kinase M2 isoform), P14618 1-531 (natural protein; other documents disagree on this pair)
